Assay results reported in patent CN115819582A (HEFEI TIANGANG IMMUNOLOGY PHARMACEUTICAL CO LTD, dated 2023).

B1: 鼠单抗mAb003 (antibody, mouse IgG1, kappa, V domains shown)
VH: EVQLQQSGPELVKPGASVRITCKASGYTFTDYNIHWVKQSHGKSLEWIGYIYPYNGGSGYNQKFKSQATLTVDTSSTTAYMEIRSLTSEDSAVYYCAREEVRRDEALDFWGQGTSVTVSS
VL: DIQMTQSPASLSVSVGETVNITCRVSENIYSNLAWYQQKQGKSPQLLVYGASNLPDGVPSRFSGSGSGTQYSLKINTLQSEDFGTYYCQHFWGTPYTFGGGTKLEIKR
notes: Mouse monoclonal antibody from a hybridoma; also called PVRIG抗体
B2: 鼠单抗mAb002 (antibody, mouse IgG1, kappa, V domains shown)
VH: EVQLQQSGPELVKPGASMKISCKASGYSFTGYTMNWVKQSPGKNLEWIGLITPYNNDTSYNQKFKGKATLTVDKSSSTAYMELLSLTSEDSAVYYCARWVYGNYVGWFAYWGQGTLVTVSA
VL: DIVMTQSHKFMSTSVGDRVNITCKASQDVSTSVTWYQQKPGQSPKLLIYSTSYRYTGVPDRFTGSGSGTDFTFTISSVQAEDLAVYYCQQHYSTPWTFGGGTKLEIKR
notes: as for B1
B3: 鼠单抗mAb004 (antibody, mouse IgG1, kappa)
heavy: QVQLQQPGAELVKPGTSVKLSCKASGYNFTSYWINWVKLRPGQGLEWIGDIYPGNYSPNYNEKFLNKATLTTDTASSTAYMQLNNLASEDSAVYYCASGYFDYWGQGTTLIVSAAKTTPPSVYPLAPGSAAQTNSMVTLGCLVKGYFPEPVTVTWNSGSLSSGVHTFPAVLQSDLYTLSSSVTVPSSTWPSETVTCNVAHPASSTKVDKKIVPRDCGCKPCICTVPEVSSVFIFPPKPKDVLTITLTPKVTCVVVDISKDDPEVQFSWFVDDVEVHTAQTQPREEQFNSTFRSVSELPIMHQDWLNGKEFKCRVNSAAFPAPIEKTISKTKGRPKAPQVYTIPPPKEQMAKDKVSLTCMITDFFPEDITVEWQWNGQPAENYKNTQPIMDTDGSYFVYSKLNVQKSNWEAGNTFTCSVLHEGLHNHHTEKSLSHSPGK
light: DIVMTQSPSSLSVSAGEEVIMSCKSSQSLLNSGTQKNYLAWYQQKPGQPPKLLIYGTSTRESGVPDRFTGSGSGTDFTLTINNVQAEDLAIYYCQNDHSYPYTFGGGTKLEIKRADAAPTVSIFPPSSEQLTSGGASVVCFLNNFYPKDINVKWKIDGSERQNGVLNSWTDQDSKDSTYSMSSTLTLTKDEYERHNSYTCEATHKTSTSPIVKSFNRNEC
notes: as for B1
B4: 鼠单抗mAb001 (antibody, mouse IgG1, kappa, V domains shown)
VH: EVQLQQSGPDLVKTGASVKISCKAVGYSFTGYNVHWVKQSHDKSLEWIGYIHFYTGATDYNQKFKDKATFTVDASSNTAYMQFNSLTSEDSAVYYCAIMRWAVDYWGQGTSVTVSS
VL: QIVLTQSPTIMSASPGETVTMTCSVSSSVNYIYWYQQKSGASPKRWIYDTSKLASGVPSRFSGSGSGASYSLTISNMEAEDAATYYCQQWSSNPYTFGGGTKLEIKR
notes: as for B1

Target: T1, 重组人PVRIG-人IgG1 Fc融合蛋白 (human)
T1 construct: The Fc gene was added at the C-terminus of the gene for the PVRIG extracellular domain; no linker or signal peptide is stated; also called 人PVRIG重组蛋白
T1 sequence (chain, as listed by the source limits assumed): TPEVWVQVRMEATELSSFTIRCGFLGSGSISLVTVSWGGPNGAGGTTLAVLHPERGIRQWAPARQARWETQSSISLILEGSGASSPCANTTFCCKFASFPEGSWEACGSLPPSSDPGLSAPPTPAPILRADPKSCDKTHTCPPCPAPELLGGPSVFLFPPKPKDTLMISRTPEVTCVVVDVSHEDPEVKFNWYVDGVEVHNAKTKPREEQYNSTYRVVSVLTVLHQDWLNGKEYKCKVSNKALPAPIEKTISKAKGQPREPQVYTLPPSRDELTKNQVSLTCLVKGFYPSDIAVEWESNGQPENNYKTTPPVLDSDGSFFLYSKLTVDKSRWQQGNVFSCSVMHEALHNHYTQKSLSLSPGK
Test: ELISA, coated PVRIG-Fc 0.5 ug/ml, anti-mouse IgG-HRP

Binder | binding result
B1 | binds
B2 | binds
B3 | binds
B4 | binds
